From article PMC11060668
Where no end group is shown, it is not given here. [ ]: non-standard residue; d: D form. pY = N[C@@H](Cc1ccc(OP(=O)(O)O)cc1)C(=O)O

Target: T1, PTP1B (residue 1-321) (UniProt P18031)
T1 sequence: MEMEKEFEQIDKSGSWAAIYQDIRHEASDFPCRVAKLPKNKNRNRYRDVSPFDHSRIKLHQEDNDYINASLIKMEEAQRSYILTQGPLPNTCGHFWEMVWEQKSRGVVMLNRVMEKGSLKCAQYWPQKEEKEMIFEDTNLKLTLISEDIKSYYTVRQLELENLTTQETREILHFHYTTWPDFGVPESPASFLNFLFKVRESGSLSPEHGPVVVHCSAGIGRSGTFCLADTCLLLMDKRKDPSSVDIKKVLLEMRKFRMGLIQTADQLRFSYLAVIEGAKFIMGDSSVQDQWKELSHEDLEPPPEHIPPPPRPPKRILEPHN

kcat/KM of dephosphorylation of the peptide by purified PTP1B: 2.17e+06 M^−1 S^−1
B1: alpha-actinin4 derived di-phospho-tyrosine peptide ELDpYpYDSHN (peptide)
peptide: ELD[pY][pY]DSHN
